Data taken from PMC3365938.

Molecular target: TolAIII, C-terminal domain of E. coli TolA (residues 302-421) with N-terminal His6 tag (E. coli) (UniProt P19934)
Experiment: SPR

Chain of UniProt P19934 (P19934 302-421): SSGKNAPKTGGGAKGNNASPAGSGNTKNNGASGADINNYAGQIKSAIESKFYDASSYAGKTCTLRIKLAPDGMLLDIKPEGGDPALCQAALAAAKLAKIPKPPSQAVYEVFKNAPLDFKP

Question: Which Kd does the source give for “TA53-107, residues 53-107 of the translocation domain of colicin A (from UniProt P04480 53-107) (domain or fragment)” here?
Answer: The Kd was 1340 nM.
